Results on 8 substances are retold here after PMC2928781.

Holding throughout (assay): two-hybrid; L40 strain co-transformed with pGAD424 (prey) and pBTM116 (target) constructs; LACZ reporter read by ONPG assay (Miller units); each mutant against the wild-type MSH4 or MSH5 partner; three independent co-transformants
One assay has as its target Msh5 (S. cerevisiae) (UniProt Q12175).
Assay [1] has as its target Msh5 D250A (S. cerevisiae) (UniProt Q12175).
For assay [2], the target named is Msh5 D433A (S. cerevisiae) (UniProt Q12175).
For assay [3], the target named is Msh5 D527A (S. cerevisiae) (UniProt Q12175).
The target of assay [4] is Msh5 D532A (S. cerevisiae) (UniProt Q12175).
Assay [5] addresses Msh5 D539A (S. cerevisiae) (UniProt Q12175).
Assay [6] deals with Msh5 D680A (S. cerevisiae) (UniProt Q12175).
For assay [7], the target named is Msh5 D76A (S. cerevisiae) (UniProt Q12175).
Assay [8] has as its target Msh5 E45A (S. cerevisiae) (UniProt Q12175).
The target in assay [9] is Msh5 G648A (S. cerevisiae) (UniProt Q12175).
For assay [10], the target named is Msh5 N182A (S. cerevisiae) (UniProt Q12175).
For assay [11], the target named is Msh5 R436A (S. cerevisiae) (UniProt Q12175).
In assay [12] the target is Msh5 R685W (S. cerevisiae) (UniProt Q12175).
For assay [13], the target named is Msh5 S416A (S. cerevisiae) (UniProt Q12175).
The target of assay [14] is Msh5 V488A (S. cerevisiae) (UniProt Q12175).
In assay [15] the target is Msh5 W298A (S. cerevisiae) (UniProt Q12175).
Assay [16] has as its target Msh5 Y480A (S. cerevisiae) (UniProt Q12175).
In assay [17] the target is Msh5 Y661A (S. cerevisiae) (UniProt Q12175).

Chain of Msh4 (P40965 whole entry): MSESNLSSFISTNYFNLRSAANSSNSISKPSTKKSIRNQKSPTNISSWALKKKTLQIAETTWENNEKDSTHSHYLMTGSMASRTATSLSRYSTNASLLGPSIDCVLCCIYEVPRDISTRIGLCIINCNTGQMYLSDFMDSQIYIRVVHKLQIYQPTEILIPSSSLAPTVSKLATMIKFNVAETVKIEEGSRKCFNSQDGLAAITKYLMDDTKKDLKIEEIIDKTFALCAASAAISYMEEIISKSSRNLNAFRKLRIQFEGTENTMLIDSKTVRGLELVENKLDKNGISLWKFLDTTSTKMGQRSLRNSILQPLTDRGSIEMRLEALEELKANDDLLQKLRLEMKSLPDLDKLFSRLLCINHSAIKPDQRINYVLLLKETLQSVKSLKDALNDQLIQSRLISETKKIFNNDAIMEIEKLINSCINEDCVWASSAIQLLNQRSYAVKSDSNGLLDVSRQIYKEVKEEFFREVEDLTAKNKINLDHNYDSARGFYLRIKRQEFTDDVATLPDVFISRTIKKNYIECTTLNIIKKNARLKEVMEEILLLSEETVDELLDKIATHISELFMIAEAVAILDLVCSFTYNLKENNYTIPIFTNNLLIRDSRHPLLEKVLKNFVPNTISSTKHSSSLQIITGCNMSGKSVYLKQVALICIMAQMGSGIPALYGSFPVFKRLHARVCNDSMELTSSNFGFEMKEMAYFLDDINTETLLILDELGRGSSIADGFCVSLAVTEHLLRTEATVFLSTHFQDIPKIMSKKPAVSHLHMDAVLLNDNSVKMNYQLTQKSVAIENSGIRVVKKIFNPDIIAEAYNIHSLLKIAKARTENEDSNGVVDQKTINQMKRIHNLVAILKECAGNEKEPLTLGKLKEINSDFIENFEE

Consider “Msh4 (from UniProt P40965 1-878) (natural protein)”, for which the β-galactosidase activity (two-hybrid) with Msh5 (S. cerevisiae) came to 54 Miller units; in assay [1], 6.2 Miller units; in assay [2], 1.4 Miller units; in assay [3], 1.9 Miller units; in assay [4] it was 3.7 Miller units; in assay [5] it was 89 Miller units. For the same substance, the β-galactosidase activity (two-hybrid) in assay [6] was found to be 1.4 Miller units; in assay [7], 1.3 Miller units; in [8], 62 Miller units; in assay [9], 45 Miller units; in assay [10] it was 63 Miller units; in [11], 1.3 Miller units. Further, the β-galactosidase activity (two-hybrid) in assay [12] came to 46 Miller units; in assay [13], 3 Miller units; in assay [14], 1.4 Miller units; in [15], 1.4 Miller units; in assay [16] it was 2.2 Miller units; in assay [17], 1.2 Miller units.

As for “Msh4 D139A (from UniProt P40965 1-878) (natural protein)”, in the assay with Msh5 (S. cerevisiae), the β-galactosidase activity (two-hybrid) was found to be 1.5 Miller units.

In turn, “Msh4 E276A (from UniProt P40965 1-878) (natural protein)” returned a β-galactosidase activity (two-hybrid) with Msh5 (S. cerevisiae) of 70 Miller units.

The substance “Msh4 F491A (from UniProt P40965 1-878) (natural protein)” registered a β-galactosidase activity (two-hybrid) with Msh5 (S. cerevisiae) of 2.5 Miller units.

In the assay with Msh5 (S. cerevisiae), “Msh4 G639A (from UniProt P40965 1-878) (natural protein)” showed a β-galactosidase activity (two-hybrid) of 11.6 Miller units.

In turn, “Msh4 L493A (from UniProt P40965 1-878) (natural protein)” had a β-galactosidase activity (two-hybrid) with Msh5 (S. cerevisiae) of 1.6 Miller units.

The substance “Msh4 R456A (from UniProt P40965 1-878) (natural protein)” returned a β-galactosidase activity (two-hybrid) in the assay with Msh5 (S. cerevisiae) of 1.9 Miller units.

Take “Msh4 R676W (from UniProt P40965 1-878) (natural protein)”: the β-galactosidase activity (two-hybrid) in the assay with Msh5 (S. cerevisiae) turned out to be 96 Miller units.
